The text below walks through data of article PMC4503747, “The Gcn2 Regulator Yih1 Interacts with the Cyclin Dependent Kinase Cdc28 and Promotes Cell Cycle Progression through G2/M in Budding Yeast” (PLoS ONE, 2015).

The target in this test is T1, GST-Yih1*H2 (E87A and D90A in helix H2 of the RWD domain) (S. cerevisiae, UniProt P25637 1-258, E87A | D90A).
T1 construct: Yih1, S. cerevisiae, with alanine substitutions of Glu-87 and Asp-90;; source: S. cerevisiae yih1Δ strain MSY-Y2, galactose-inducible promoter, in whole cell extract
T1 sequence (looked up): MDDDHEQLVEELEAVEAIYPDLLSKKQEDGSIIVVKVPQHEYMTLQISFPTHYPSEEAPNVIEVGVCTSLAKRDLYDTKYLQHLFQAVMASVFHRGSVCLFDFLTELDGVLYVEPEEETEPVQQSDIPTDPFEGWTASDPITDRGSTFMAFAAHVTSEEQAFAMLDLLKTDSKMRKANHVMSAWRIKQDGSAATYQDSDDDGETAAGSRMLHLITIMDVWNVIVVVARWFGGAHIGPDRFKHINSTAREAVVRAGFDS
Nature of the test: pull-down; in vivo GST pull-down: GST fusions overexpressed in yeast from a galactose-inducible promoter (yih1Δ strains; gcn1Δ strain H2556 for the fragments; also cells arrested in G1 with α-factor and released), WCE (1-2 mg) on glutathione beads, immunoblot for endogenous proteins. Particulars: partners not purified.

B1: Cdc28 (endogenous, yeast whole cell extract) (natural protein)
chain: not shown
notes: Cdc28, cyclin-dependent kinase of S. cerevisiae, endogenous; In the extract Cdc28 may be in complexes with cyclins and other regulators; also called endogenous Cdc28; native Cdc28; source: endogenous, S. cerevisiae whole cell extract
For the molecule B1, the “fold increase of co-precipitated Cdc28 against wild type GST-Yih1” value was roughly 5 fold.
